For assay [1], the target named is T1, mTMEM149-Fc (mouse TMEM149 extracellular domain with C-terminal human IgG1 Fc) (mouse; human, UniProt Q3U4N7 21-163).
T1 construct: Only the predicted extracellular domain, without the transmembrane domain, was used; the signal peptide is residues 1-22; not shown: human IgG1 Fc, C-terminal
T1 sequence: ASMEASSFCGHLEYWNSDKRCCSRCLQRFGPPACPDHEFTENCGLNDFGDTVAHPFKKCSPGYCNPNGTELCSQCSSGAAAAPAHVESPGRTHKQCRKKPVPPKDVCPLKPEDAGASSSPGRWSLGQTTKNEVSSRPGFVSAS
The assay can be described thus: SPR, mTMEM149-Fc captured on the chip. As to the method:
(§1) Surface plasmon resonance (SPR) was run on a BiaCore 3000 (GE healthcare, Piscataway, N.J.) at 25° C. using anti-human IgG F(ab′)₂ (Jackson Immunoresearch, West Grove, Pa.) amine-coupled to BiaCore CM5 sensor chips. For kinetic analysis of protein interactions, Fc-fusion proteins at 25 μg/ml were first captured onto sensor chips by injecting them for 3 min at 5 μl/min. Then, test proteins diluted to their indicated concentrations in HBS-P buffer (0.01 M Hepes, pH 7.4 0.15 M NaCl 0.005% Surfactant P20) were injected for 3 min at 30 μl/min. Dissociation in HBS-P buffer alone was then measured at a flow rate of […]. Sensor chips surfaces were regenerated by injecting 10 mM glycine pH 1.5 for 30 s after each cycle. Kinetic parameters were determined by fitting the data to a 1:1 Langmuir model using the Biacore 3000 evaluation software (GE Healthcare).

Assay [2] addresses T2, Mouse TMEM149 on the cell surface (transfected 293T cells; mouse T cells) (mouse, UniProt Q3U4N7 23-345).
T2 construct: also called mTMEM149; murine TMEM149
T2 sequence: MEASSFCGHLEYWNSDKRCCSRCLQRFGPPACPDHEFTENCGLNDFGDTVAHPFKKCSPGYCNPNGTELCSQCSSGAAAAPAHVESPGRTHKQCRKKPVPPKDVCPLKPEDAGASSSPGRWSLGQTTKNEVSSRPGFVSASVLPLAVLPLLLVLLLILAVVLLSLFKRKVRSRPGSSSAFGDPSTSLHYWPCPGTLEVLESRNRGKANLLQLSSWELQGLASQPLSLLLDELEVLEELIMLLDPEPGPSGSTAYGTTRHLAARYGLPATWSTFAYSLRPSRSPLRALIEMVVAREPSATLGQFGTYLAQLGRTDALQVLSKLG
The assay is described as follows: radioligand competition: 125I-FLAG-mIGFL (100 pM) on 293T cells expressing murine TMEM149, unlabelled FLAG-mIGFL varied. As to the method: (§2) Reference is made to Example 11.
(§3) To determine the affinity of IGFL with TMEM149, ligands were iodinated with ¹²⁵I using the lactoperoxidase method and free ¹²⁵I-Na was removed from the labeled protein by gel filtration using a NAP-5 column. 50 μL competition reaction mixtures containing a fixed concentration of iodinated ligand and decreasing concentrations of serially diluted, unlabeled ligand were placed into 96-well plates in triplicate. To each well, HEK293T cells stably expressing human or mouse TMEM149 were added at a density of 100,000 cells in 0.2 mL of binding buffer (Dulbecco's Modified Eagle Medium with 1% bovine serum albumin, 50 mM HEPES pH 7.2 and 2 mM sodium azide). The final concentration of the iodinated ligand with cells in each competition reaction was 100 pM (100,000 cpms per 0.25 mL). The final concentration of the unlabeled ligand with cells in the competition reaction varied, starting at 500 nM and then decreasing by […] dilution for ten concentrations, and included a zero-added, buffer-only sample. […] The filters were counted on a Wallac Wizard 1470 gamma counter (PerkinElmer Life and Analytical Sciences Inc.; Wellesley, Mass.). The binding data was evaluated using NewLigand software (Genentech), which uses the fitting algorithm of Munson and Robard to determine the binding affinity of the antibody (Munson, P. J., and D. Rodbard. 1980.

The target of assay [3] is T3, nerve growth factor receptor (NGFR) on transfected 293T cells (UniProt P08138 29-427, limits assumed).
T3 construct: whole, on cells
T3 sequence (looked up): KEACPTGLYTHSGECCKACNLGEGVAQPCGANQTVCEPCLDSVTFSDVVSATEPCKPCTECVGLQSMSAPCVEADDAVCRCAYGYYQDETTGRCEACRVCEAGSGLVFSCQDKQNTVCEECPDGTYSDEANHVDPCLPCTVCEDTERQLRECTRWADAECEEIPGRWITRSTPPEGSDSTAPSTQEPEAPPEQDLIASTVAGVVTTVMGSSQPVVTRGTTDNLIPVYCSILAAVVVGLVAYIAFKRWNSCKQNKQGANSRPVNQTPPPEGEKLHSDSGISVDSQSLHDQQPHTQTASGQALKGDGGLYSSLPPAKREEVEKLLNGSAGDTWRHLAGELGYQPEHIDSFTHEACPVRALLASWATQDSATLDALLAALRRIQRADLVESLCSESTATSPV
The assay is described as follows: flow cytometry of transfected 293T cells, FLAG-mIGFL detected with fluorescent anti-FLAG.

Assay [4] concerns the target T4, DR4 on transfected 293T cells (UniProt O00220 24-468, limits assumed).
T4 construct: whole, on cells
T4 sequence (looked up): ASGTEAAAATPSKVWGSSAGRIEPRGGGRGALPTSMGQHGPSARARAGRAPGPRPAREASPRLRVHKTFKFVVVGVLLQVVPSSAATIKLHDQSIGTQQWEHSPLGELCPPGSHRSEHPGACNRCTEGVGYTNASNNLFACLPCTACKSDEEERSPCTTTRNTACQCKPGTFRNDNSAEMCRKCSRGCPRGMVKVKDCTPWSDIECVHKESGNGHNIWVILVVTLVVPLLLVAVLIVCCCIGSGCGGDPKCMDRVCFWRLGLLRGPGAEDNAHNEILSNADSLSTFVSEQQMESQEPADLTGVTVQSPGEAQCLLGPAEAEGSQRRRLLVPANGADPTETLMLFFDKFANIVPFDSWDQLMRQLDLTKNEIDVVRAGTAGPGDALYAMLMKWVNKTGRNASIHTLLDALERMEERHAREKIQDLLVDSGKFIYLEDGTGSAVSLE
Described as above.

In assay [5] the target is T2, Mouse TMEM149 on the cell surface …. The assay is described as follows: radioligand competition assay; 125I-FLAG-mIGFL against unlabelled ligand on 293T cells expressing mouse TMEM149. As to the method: as §2, §3
Assay [6] concerns the target T3, nerve growth factor receptor (NGFR) on …. The assay can be described thus: flow cytometry of transfected 293T cells, FLAG-IGFL3 detected with fluorescent anti-FLAG.
The target of assay [7] is T4, DR4 on transfected 293T cells. Described as above.
The target in assay [8] is T5, TMEM149-Fc (human TMEM149 extracellular domain with C-terminal human IgG1 Fc) (human, UniProt Q9H665 23-160).
T5 construct: also called recombinant human TMEM149-Fc; Fc-TMEM149; not shown: human IgG1 Fc, C-terminal
T5 sequence: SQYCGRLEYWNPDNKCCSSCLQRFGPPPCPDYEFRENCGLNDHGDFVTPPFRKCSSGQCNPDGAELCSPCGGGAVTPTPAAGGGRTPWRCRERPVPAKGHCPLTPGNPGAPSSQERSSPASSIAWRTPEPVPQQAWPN
The assay is described as follows: SPR, TMEM149-Fc captured on the chip. As for the experimental part:
as §1
(In general: SPR reads the build-up and loss of mass on a sensor chip optically.)

For assay [9], the target named is T5, TMEM149-Fc (human TMEM149 extracellular …). The assay is described as follows: SPR (BiaCore 3000); TMEM149-Fc captured by anti-human IgG, 1:1 Langmuir fit. As for the experimental part:
as §1

The target in assay [10] is T6, Human TMEM149 on the cell surface (transfected HEK293T cells; human leukocytes) (human, UniProt Q9H665 23-355).
T6 construct: also called hTMEM149; MK61
T6 sequence: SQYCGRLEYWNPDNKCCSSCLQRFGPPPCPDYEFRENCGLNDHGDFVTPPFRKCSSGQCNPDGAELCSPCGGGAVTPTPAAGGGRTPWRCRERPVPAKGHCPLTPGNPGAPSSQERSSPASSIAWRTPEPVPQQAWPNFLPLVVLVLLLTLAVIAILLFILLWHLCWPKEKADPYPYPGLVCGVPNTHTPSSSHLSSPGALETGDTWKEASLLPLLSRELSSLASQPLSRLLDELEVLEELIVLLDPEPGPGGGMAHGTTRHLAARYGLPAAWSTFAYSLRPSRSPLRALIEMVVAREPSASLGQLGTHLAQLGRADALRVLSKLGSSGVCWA
The assay is described as follows: radioligand competition assay; 125I-FLAG-IGFL1 against unlabelled ligand on HEK293T cells stably expressing human TMEM149. As to the method:
To determine the affinity of IGFL with TMEM149, ligands were iodinated with ¹²⁵I using the lactoperoxidase method and free ¹²⁵I-Na was removed from the labeled protein by gel filtration using a NAP-5 column. 50 μL competition reaction mixtures containing a fixed concentration of iodinated ligand and decreasing concentrations of serially diluted, unlabeled ligand were placed into 96-well plates in triplicate. To each well, HEK293T cells stably expressing human or mouse TMEM149 were added at a density of 100,000 cells in 0.2 mL of binding buffer (Dulbecco's Modified Eagle Medium with 1% bovine serum albumin, 50 mM HEPES pH 7.2 and 2 mM sodium azide). The final concentration of the iodinated ligand with cells in each competition reaction was 100 pM (100,000 cpms per 0.25 mL). The final concentration of the unlabeled ligand with cells in the competition reaction varied, starting at 500 nM and then decreasing by 1- to 2-fold dilution for ten concentrations, and included a zero-added, buffer-only sample. Competition reactions were incubated for 2 hours at room temperature, then transferred to a Millipore Multiscreen filter plate (Billerica, Mass.) and washed 4 times with binding buffer to separate the free from bound iodinated antibody. The filters were counted on a Wallac Wizard 1470 gamma counter (PerkinElmer Life and Analytical Sciences Inc.; Wellesley, Mass.).

Assay [11] addresses T3, nerve growth factor receptor (NGFR) on …. The assay is described as follows: flow cytometry of transfected 293T cells, FLAG-IGFL1 detected with fluorescent anti-FLAG. A general note: In flow cytometry, cells or beads pass a laser one at a time.
Assay [12] deals with T4, DR4 on transfected 293T cells. The description is as above.
For assay [13], the target named is T6, Human TMEM149 on the cell surface …. The assay is described as follows: radioligand competition: 125I-FLAG-IGFL1 (100 pM) on HEK293T cells expressing human TMEM149, unlabelled FLAG-IGFL1 varied. As to the method:
B) FACS analysis of IFGL1 binding to cells expressing surface TMEM149. […] Reference is made to Examples 10 and 11.
as §3, with “Mass.).” for “Mass.). The binding data was evaluated using NewLigand software (Genentech), which uses the fitting algorithm of Munson and Robard to determine the binding affinity of the antibody (Munson, P. J., and D. Rodbard. 1980.”
In general terms: Loss of bound radioactivity is the signal in a displacement assay; it reports binding, not function.

For orientation: Kd means the concentration at which binding is half-saturated.

B1: FLAG-mIGFL (recombinant mouse IGFL with N-terminal FLAG epitope tag) (ligand, not shown: small tags and cut ends)
chain: RKISTFSGPGSWPCNPKCDGRTYNPSEECCVHDTILPFKRINLCGPSCTYRPCFELCCPESYSPKKKFIVKLKVHGERSHCSSSPISRNCKSNKIFHGEDIEDNQLSLRKKSGDQP
notes: also called mIGFL-FLAG; mIGFL1
With B1, the Kd in assay [1] turned out to be 0.15 nM; in assay [5], 0.73 nM. For the same molecule, the “IC50 (read off the curve)” value in assay [2] was ~0.8 nM. In addition, the binding result in [3] and in [4] was “no binding” throughout.

B2: FLAG-IGFL3 (recombinant human IGFL3 with FLAG epitope tag) (ligand, not shown: small tags and cut ends)
chain: TTDAPVGSGLWLCQPTPRCGNKIYNPSEQCCYDDAILSLKETRRCGSTCTFWPCFELCCPESFGPQQKFLVKLRVLGMKSQCHLSPISRSCTRNRRHVLYP
notes: also called hIGFL3
For B2, the binding result in [6] and in assay [7] was “no binding” in each case. The molecule further had a Kd in assay [8] of 0.08 nM.

B3: FLAG-IGFL1 (recombinant human IGFL1 with FLAG epitope tag) (ligand)
chain: APVAPMTPYLMLCQPHKRCGDKFYDPLQHCCYDDAVVPLARTQTCGNCTFRVCFEQCCPWTFMVKLINQNCDSARTSDDRLCRSVS
notes: Made in CHO cells; Signal peptide cleavage is predicted only; also called hIGFL1; IGFL1-FLAG; not shown: printed both as FLAG-IGFL1 and IGFL1-FLAG, so the end that carries the tag is not
As to B3, the results for the Kd in [9] and in assay [10] were 1.2 nM and 0.31 nM, respectively. The binding result in assay [11] and in assay [12] was “no binding” throughout. The “IC50 (read off the curve)” value in assay [13] is ~0.5 nM.

The record behind these values is patent publication US20130302347A1 (Genentech, published 2013).
